According to patent publication EP4768505A1 (Shenzhen Genocury Biotech Co., Ltd, dated 2026):

Legend:
Mouse CD79B antigen = target: T1, Mouse CD79B antigen (mouse, UniProt P15530 26-158, limits assumed); experiment: ELISA on coated antigen, anti-myc detection
T1 sequence (looked up): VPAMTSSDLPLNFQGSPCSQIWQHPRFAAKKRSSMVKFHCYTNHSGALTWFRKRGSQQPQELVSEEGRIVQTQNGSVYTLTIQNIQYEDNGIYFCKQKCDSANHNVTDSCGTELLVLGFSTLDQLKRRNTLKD

[1] = target: Human CD79A+CD79B antigen (human) (UniProt P11912); experiment: ELISA on coated antigen, anti-myc detection; 2ng antibody added
[2] = target: Human CD79B Protein, His Tag (MALS verified), Cat. No. #CDB-H52H3-1mg, ACRO (human) (UniProt P40259); experiment: as above
[3] = target: T2, Mouse CD79A+CD79B antigen (mouse) (UniProt P11911); experiment: as above
T2 sequence (looked up) 1: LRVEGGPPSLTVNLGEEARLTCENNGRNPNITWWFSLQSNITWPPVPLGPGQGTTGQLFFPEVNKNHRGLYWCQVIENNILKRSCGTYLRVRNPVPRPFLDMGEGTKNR
T2 sequence (looked up) 2: T1 sequence (looked up)

[4] = target: Human CD79A+CD79B antigen (human) (UniProt P11912); experiment: ELISA on coated antigen, anti-myc detection; 2ug antibody added
[5] = target: Human CD79B Protein, His Tag (MALS verified), Cat. No. #CDB-H52H3-1mg, ACRO (human) (UniProt P40259); experiment: as above
[6] = target: T2, Mouse CD79A+CD79B antigen (mouse); experiment: as above
[7] = target: Human CD79A+CD79B antigen (human) (UniProt P11912); experiment: ELISA on coated antigen, anti-myc detection; 20ug antibody added
[8] = target: Human CD79B Protein, His Tag (MALS verified), Cat. No. #CDB-H52H3-1mg, ACRO (human) (UniProt P40259); experiment: as above
[9] = target: T2, Mouse CD79A+CD79B antigen (mouse); experiment: as above
[10] = target: Human CD79A+CD79B antigen (human) (UniProt P11912); experiment: ELISA on coated antigen, anti-myc detection; 20ng antibody added
[11] = target: Human CD79B Protein, His Tag (MALS verified), Cat. No. #CDB-H52H3-1mg, ACRO (human) (UniProt P40259); experiment: as above
[12] = target: T2, Mouse CD79A+CD79B antigen (mouse); experiment: as above
[13] = target: Human CD79A+CD79B antigen (human) (UniProt P11912); experiment: ELISA on coated antigen, anti-myc detection; 200ng antibody added
[14] = target: Human CD79B Protein, His Tag (MALS verified), Cat. No. #CDB-H52H3-1mg, ACRO (human) (UniProt P40259); experiment: as above
[15] = target: T2, Mouse CD79A+CD79B antigen (mouse); experiment: as above
BSA [16] = target: BSA (UniProt P02769); experiment: ELISA on coated BSA control, anti-myc detection; 2ug antibody added
BSA [17] = target: BSA (UniProt P02769); experiment: ELISA on coated BSA control, anti-myc detection; 2ng antibody added
BSA [18] = target: BSA (UniProt P02769); experiment: ELISA on coated BSA control, anti-myc detection; 20ng antibody added
BSA [19] = target: BSA (UniProt P02769); experiment: ELISA on coated BSA control, anti-myc detection; 20ug antibody added
BSA [20] = target: BSA (UniProt P02769); experiment: ELISA on coated BSA control, anti-myc detection; 200ng antibody added
[21] = target: T3, human CD79B antigen (a full-length protein containing signal peptide, UniProt ID: P40259) on cells (human, UniProt P40259 29-229); experiment: flow cytometry on HEK-293T cells overexpressing CD79B-GFP, 0.1 mg/mL, APC-His tag antibody
T3 construct: whole, on cells; Used for the flow cytometry on transfected HEK-293T cells; F2A residues left at the C-terminus after cleavage are not described; also called CD79B-GFP molecule; HEK-293T cells overexpressing the CD79B-GFP molecule
T3 sequence (looked up): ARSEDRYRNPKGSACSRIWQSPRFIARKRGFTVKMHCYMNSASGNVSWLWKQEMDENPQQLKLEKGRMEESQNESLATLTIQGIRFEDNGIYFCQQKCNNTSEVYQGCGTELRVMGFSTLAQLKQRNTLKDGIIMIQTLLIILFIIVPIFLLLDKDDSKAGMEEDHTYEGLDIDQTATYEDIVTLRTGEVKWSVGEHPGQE

[22] = target: Human CD79A+CD79B antigen (human) (UniProt P11912); experiment: ELISA on coated antigen, anti-myc detection; 200µg [sic] antibody added (lowest step of the dilution series)
[23] = target: Human CD79B Protein, His Tag (MALS verified), Cat. No. #CDB-H52H3-1mg, ACRO (human) (UniProt P40259); experiment: as above
[24] = target: T2, Mouse CD79A+CD79B antigen (mouse); experiment: as above
BSA [25] = target: BSA (UniProt P02769); experiment: ELISA on coated BSA control, anti-myc detection; 200µg [sic] antibody added (lowest step of the dilution series)

Sequence of BSA (P02769 25-607 limits assumed): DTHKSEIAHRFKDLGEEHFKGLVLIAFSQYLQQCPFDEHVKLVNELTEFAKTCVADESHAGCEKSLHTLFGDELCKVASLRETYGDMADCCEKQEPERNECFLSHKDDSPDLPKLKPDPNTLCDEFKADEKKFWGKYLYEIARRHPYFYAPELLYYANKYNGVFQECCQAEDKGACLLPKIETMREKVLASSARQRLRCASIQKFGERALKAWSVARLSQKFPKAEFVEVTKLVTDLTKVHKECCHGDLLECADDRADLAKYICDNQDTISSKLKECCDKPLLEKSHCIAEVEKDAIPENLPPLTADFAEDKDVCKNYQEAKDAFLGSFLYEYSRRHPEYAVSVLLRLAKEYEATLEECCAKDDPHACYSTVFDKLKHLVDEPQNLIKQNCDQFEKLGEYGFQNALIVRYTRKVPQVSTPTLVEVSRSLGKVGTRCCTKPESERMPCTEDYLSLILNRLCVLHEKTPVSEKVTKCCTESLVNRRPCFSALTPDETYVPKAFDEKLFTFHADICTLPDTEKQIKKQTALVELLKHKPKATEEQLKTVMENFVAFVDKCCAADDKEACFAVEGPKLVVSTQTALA

B1: anti-CD79B single-domain antibody JYB11 (VHH)
VHH: DVQLQESGGGLVQPGGSLSLSCAASMSSPSLWVRAWHRQAPGKQRELVAAINSDGQTMYADSVKGRFTISRDNAKTLVSLQMDSLKPEDTAVYYCNVVTPRGQQYWGQGTQVTVSS
notes: Alpaca VHH from a phage library; ELISA detected with an anti-myc antibody; a myc tag is not described; not shown: His-tag protein at the C-terminal end
With B1 the binding result (Mouse CD79B antigen) was “no binding (tested: 20ug)”, the OD450 nm [1] was 0.0567 OD450 and the OD450 nm [2] was 0.0528 OD450. It also gave an OD450 nm [3] of 0.0582 OD450, an OD450 nm [4] of 0.519 OD450 and an OD450 nm [5] of 0.303 OD450. It also gave an OD450 nm [6] of 0.0651 OD450, an OD450 nm [7] of 0.612 OD450 and an OD450 nm [8] of 0.379 OD450. It also gave an OD450 nm [9] of 0.0981 OD450, an OD450 nm [10] of 0.0778 OD450 and an OD450 nm [11] of 0.0947 OD450. It also gave an OD450 nm [12] of 0.0575 OD450, an OD450 nm [13] of 0.271 OD450 and an OD450 nm [14] of 0.177 OD450. The OD450 nm [15] was 0.0589 OD450, the OD450 nm (BSA [16]) was 0.0483 OD450 and the OD450 nm (BSA [17]) was 0.0485 OD450. It also gave an OD450 nm (BSA [18]) of 0.0471 OD450, an OD450 nm (BSA [19]) of 0.0489 OD450 and an OD450 nm (BSA [20]) of 0.048 OD450. For the same binder, the binding result [21] was “binds”, the OD450 nm [22] was 0.0556 OD450 and the OD450 nm [23] was 0.0516 OD450. It also gave an OD450 nm [24] of 0.0586 OD450 and an OD450 nm (BSA [25]) of 0.0469 OD450.
